Measurements from publication doi:10.1101/2023.06.15.543498.

Target: E. coli 70S ribosomes without a bound tRNA (E. coli (endogenous in strain MRE600)) (UniProt P0A7L0)
Assay: populations of particle classes in cryo-EM samples

“EQ2-EttA (hydrolysis-deficient EQ2 mutant of E. coli EttA, Energy-dependent translation throttle A) (from UniProt P0A9W3 1-555) (enzyme)” and “EQ2-Uup (hydrolysis-deficient EQ2 mutant of E. coli Uup) (from UniProt P43672 1-635) (enzyme)” cannot be ordered by Kd: 62 µM for the first, greater than 12 µM for the second.

Compared with “EQ2-YbiT (hydrolysis-deficient EQ2 mutant of E. coli YbiT) (from UniProt P0A9U3 1-530) (enzyme)”, “EQ2-YheS (hydrolysis-deficient EQ2 mutant of E. coli YheS) (from UniProt P63389 1-637) (enzyme)” is higher in Kd: 1.2 µM for the first, greater than 19 µM for the second. The first binds more tightly here.
